What all share (assay): FACS
(Flow cytometry measures light scatter and fluorescence of single cells or particles in a stream.)

The target of experiment [1] is BtKY72 RBD, yeast-displayed (bat sarbecovirus BtKY72).
In experiment [2] the target is WIV1.
The target in experiment [3] is SARS-CoV-2 RBD (Wuhan-Hu-1, Asn331–Thr531), yeast-displayed (SARS-CoV-2 (Wuhan-Hu-1), UniProt P0DTC2 331-531).

B1: R. affinis 787 ACE2 residues 19–615 with C-terminal human IgG1 Fc (Genscript) (Fc fusion)
chain: STTEDRAKIFLDNFNREAEELSYQSSLASWEYNTNISDENVQKMDEAGAKWSAFYEEQSKLAKNYPLEEIQTVPVKLQLQILQQSGSPVLSEDKSKRLNSILNAMSTIYSTGKVCKPNNPQECFLLEPGLDNIMGTSKDYNERLWAWEGWRAEVGKQLRPLYEEYVVLKNEMARGYHYEDYGDYWRRDYETEESSGSGYSRDQLMKDVDRIFTEIKPLYEHLHAYVRTKLMDTYPFHISPTGCLPAHLLGDMWGRFWTNLYPLTVPFGQKPNIDVTDAMVNQGWDANRIFKEAEKFFVSVGLPNMTEGFWNNSMLTEPGDGRKVVCHPTAWDLGKGDFRIKMCTKVTMEDFLTAHHEMGHIQYDMAYATQPYLLRNGANEGFHEAVGEVMSLSVATPKHLKTMGLLSPDFLEDNETEINFLLKQALNIVGTLPFTYMLEKWRWMVFRGEIPKEEWMKKWWEMKRDLVGVVEPVPHDETYCDPASLFHVANDYSFIRYYTRTIFEFQFHEALCRIAQHDGPLHKCDISNSTDAGKKLHQMLSVGKSQPWTVTLKDIVDSRNMDVGPLLRYFEPLYTWLQEQNRKSYVGWNTDWSPYSD
B1 came in with a Kd in experiment [1] of 0.1 µM.

B2: Mouse (Mus musculus) ACE2 (residues 18–740) with His tag and human IgG1 Fc (Fc fusion)
chain: QSLTEENAKTFLNNFNQEAEDLSYQSSLASWNYNTNITEENAQKMSEAAAKWSAFYEEQSKTAQSFSLQEIQTPIIKRQLQALQQSGSSALSADKNKQLNTILNTMSTIYSTGKVCNPKNPQECLLLEPGLDEIMATSTDYNSRLWAWEGWRAEVGKQLRPLYEEYVVLKNEMARANNYNDYGDYWRGDYEAEGADGYNYNRNQLIEDVERTFAEIKPLYEHLHAYVRRKLMDTYPSYISPTGCLPAHLLGDMWGRFWTNLYPLTVPFAQKPNIDVTDAMMNQGWDAERIFQEAEKFFVSVGLPHMTQGFWANSMLTEPADGRKVVCHPTAWDLGHGDFRIKMCTKVTMDNFLTAHHEMGHIQYDMAYARQPFLLRNGANEGFHEAVGEIMSLSAATPKHLKSIGLLPSDFQEDSETEINFLLKQALTIVGTLPFTYMLEKWRWMVFRGEIPKEQWMKKWWEMKREIVGVVEPLPHDETYCDPASLFHVSNDYSFIRYYTRTIYQFQFQEALCQAAKYNGSLHKCDISNSTEAGQKLLKMLSLGNSEPWTKALENVVGARNMDVKPLLNYFQPLFDWLKEQNRNSFVGWNTEWSPYADQSIKVRISLKSALGANAYEWTNNEMFLFRSSVAYAMRKYFSIIKNQTVPFLEEDVRVSDLKPRVSFYFFVTSPQNVSDVIPRSEVEDAIRMSRGRINDVFGLNDNSLEFLGIHPTLEPPYQPPVT
Regarding B2, the results for the Kd in experiment [2] and in experiment [3] were roughly 3.98 µM and greater than 10 µM, respectively.

A word on the Kd: it is the concentration at which binding is half-saturated.

Source of the values: article PMC8967715 (2022).
